The text below walks through data of US20130195872A1 (NOVIMMUNE S A, published 2013).

Usually Kd stands for the equilibrium constant for the complex coming apart.

Bounds are passed on as bounds.

The target in assay [1] is T1, human IL-17A homodimer (human, UniProt Q16552 20-155, limits assumed).
T1 sequence (looked up): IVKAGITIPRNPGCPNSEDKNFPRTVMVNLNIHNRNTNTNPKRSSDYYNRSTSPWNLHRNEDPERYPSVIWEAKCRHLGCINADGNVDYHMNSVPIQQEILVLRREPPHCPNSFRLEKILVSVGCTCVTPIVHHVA
The assay is described as follows: cell-based or functional assay.

The target in assay [2] is T2, cynomolgus IL-17A homodimer (cynomolgus, UniProt A0A2K5TTB0 20-155).
T2 sequence: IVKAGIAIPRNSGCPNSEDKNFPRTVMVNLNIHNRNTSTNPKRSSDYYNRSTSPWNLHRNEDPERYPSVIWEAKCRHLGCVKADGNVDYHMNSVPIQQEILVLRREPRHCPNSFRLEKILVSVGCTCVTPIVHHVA
Put plainly: cell-based or functional assay.

Assay [3] deals with cynomolgus IL-17A/IL-17F heterodimer (cynomolgus). The assay is described as follows: cell-based or functional assay.
For assay [4], the target named is T3, mouse IL-17F homodimer (mouse, UniProt Q7TNI7 29-161, limits assumed).
T3 sequence (looked up): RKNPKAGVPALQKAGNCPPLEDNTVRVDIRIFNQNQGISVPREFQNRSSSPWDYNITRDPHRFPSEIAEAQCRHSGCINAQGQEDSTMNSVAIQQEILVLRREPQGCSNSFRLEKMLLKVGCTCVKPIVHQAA
Put plainly: cell-based or functional assay.

The target in assay [5] is T4, mouse IL-17A/IL-17F heterodimer (mouse, UniProt Q62386 26-158; Q7TNI7 29-161, limits assumed).
T4 sequence (looked up) 1: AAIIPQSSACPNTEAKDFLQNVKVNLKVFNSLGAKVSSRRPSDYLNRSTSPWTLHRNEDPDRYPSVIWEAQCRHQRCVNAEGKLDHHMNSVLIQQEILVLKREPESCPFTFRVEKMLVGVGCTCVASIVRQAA
T4 sequence (looked up) 2: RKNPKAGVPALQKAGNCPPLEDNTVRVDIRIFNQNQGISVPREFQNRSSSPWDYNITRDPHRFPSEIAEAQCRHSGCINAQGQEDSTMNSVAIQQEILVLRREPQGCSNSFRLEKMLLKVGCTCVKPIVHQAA
The assay is described as follows: cell-based or functional assay.

Assay [6] addresses T1, human IL-17A homodimer. Put plainly: cell-based or functional assay. The source holds these as a separate data set.
Assay [7] concerns the target T2, cynomolgus IL-17A homodimer. Put plainly: cell-based or functional assay. This is another data set of the same source.
Assay [8] concerns the target T1, human IL-17A homodimer. Put plainly: SPR Biacore, mAb captured, cytokine as analyte. (In general: SPR reads the build-up and loss of mass on a sensor chip optically.)
Assay [9] deals with T2, cynomolgus IL-17A homodimer. The assay is described as follows: SPR Biacore, mAb captured, cytokine as analyte.
The target of assay [10] is T5, cynomolgus IL-17A/IL-17F heterodimer (cynomolgus).
T5 construct: Produced in house in PEAK cells; how the heterodimer was made is not described; also called cyIL-17A-F heterodimer; cynomolgus IL-17A/F
The assay is described as follows: SPR Biacore, mAb captured, cytokine as analyte.

The target in assay [11] is T3, mouse IL-17F homodimer. Put plainly: SPR Biacore, mAb captured, cytokine as analyte.
In the next assay the target is T6, mouse IL-17A homodimer (mouse, UniProt Q62386 26-158, limits assumed).
T6 construct: Bought recombinant cytokine; also called muIL-17A
T6 sequence (looked up): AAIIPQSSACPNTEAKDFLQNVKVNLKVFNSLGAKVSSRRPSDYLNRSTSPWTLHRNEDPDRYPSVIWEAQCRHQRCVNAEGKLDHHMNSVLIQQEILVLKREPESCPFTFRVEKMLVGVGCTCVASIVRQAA
Put plainly: SPR Biacore, mAb captured, cytokine as analyte.

For assay [12], the target named is T4, mouse IL-17A/IL-17F heterodimer. The assay is described as follows: SPR Biacore, mAb captured, cytokine as analyte.
The target of the next assay is T7, rat IL-17A homodimer (rat, UniProt Q61453 18-150, limits assumed).
T7 construct: His-tagged, produced in house in PEAK cells; not shown: His tag
T7 sequence (looked up): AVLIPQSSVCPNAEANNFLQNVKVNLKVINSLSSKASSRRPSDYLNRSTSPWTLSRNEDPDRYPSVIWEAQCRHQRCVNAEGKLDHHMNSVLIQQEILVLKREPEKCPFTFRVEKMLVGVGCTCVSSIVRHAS
The assay is described as follows: SPR Biacore, mAb captured, cytokine as analyte.

B1: 15E6FK antibody (antibody, V domains shown)
VH: EVQLVESGGGLVQPGRSLRLSCAASGFTFDDYAMHWVRQAPGKGLEWVSGINWSSGGIGYADSVKGRFTISRDNAKNSLYLQMNSLRAEDTALYYCARDIGGFGEFYWNFGLWGRGTLVTVSS
VL: not shown
notes: kappa light chain (captured by anti-human IgG-kappa); also called mAb 15E6FK; 15E6FK IgG1
As for B1, the “IC50, IL-6 secretion by MEF cells, cytokine at 5 ng/ml” value in the assay with human IL-17A homodimer [1] was found to be 0.18 nM; in assay [2], 0.04 nM. In [3], the “IC50, IL-6 secretion by MEF cells, cytokine at 25 ng/ml” value came out at 0.08 nM. Further, the “IC50, IL-6 secretion by MEF cells, cytokine at 50 ng/ml” value (in the assay with mouse IL-17F homodimer [4]; in assay [5]) was > 1000 nM throughout. For the same molecule, the “IC50, IL-6 secretion by HFFF2 human fibroblasts, cytokine at 25 ng/ml” value turned out to be 0.83 nM in the assay with human IL-17A homodimer [6] and 0.76 nM in assay [7]. For the same molecule, the Kd with human IL-17A homodimer [8] is 0.0117 nM; in [9] it was 0.0104 nM; in assay [10], 0.0394 nM; in the assay with mouse IL-17F homodimer [11] it was 0.236 nM; in assay [12] it was 0.524 nM. The binding result with mouse IL-17A homodimer and with rat IL-17A homodimer was “no binding (tested: up to 90 nM cytokine)” throughout.
